Measured values: patent US20050003420, “Recycled mutagenesis of restriction endonuclease toward enhanced catalytic activity” (published 2005)

What was measured:
[1] = biological target: T1, BsoBI restriction endonuclease (UniProt P70985 P70985:1-323); assay: filter; 4 mM CaCl2, 100 mM NaCl, pH 7.5, room temp; ±2.0; conditions: tags: untagged, expressed from pRRS-bsoBIR in E. coli ER2683; chain copies: 2 inferred; label: 33P 5' end
T1 sequence: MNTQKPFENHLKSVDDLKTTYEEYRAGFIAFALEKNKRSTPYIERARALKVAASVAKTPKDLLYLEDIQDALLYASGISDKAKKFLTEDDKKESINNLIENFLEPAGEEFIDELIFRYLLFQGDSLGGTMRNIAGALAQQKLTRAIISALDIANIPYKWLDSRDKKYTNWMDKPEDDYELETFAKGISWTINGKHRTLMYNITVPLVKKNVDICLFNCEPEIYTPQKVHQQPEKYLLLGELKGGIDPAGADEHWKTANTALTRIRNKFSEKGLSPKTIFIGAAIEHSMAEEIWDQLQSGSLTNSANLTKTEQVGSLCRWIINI
Procedure: (§1) The binding condition was in 10 mM Tris-HCl, pH 7.5, 100 mM NaCl, 50 mg/ml BSA, 4 mM CaCl₂ in […] volume. The labeled DNA substrates were diluted to a final scintillation count of 1000-5000 cpm and varying amount of BsoBI or each variant was added. Following incubation at room temperature for 10 min, the bound complex was loaded onto Micropure EZ column (Millipore Corporation, Bedford, Mass.) and spun at 16K g for 1 min. Protein and protein:DNA complexes are bound to the membrane in the Micropure EZ column and only the free unbound DNA is in the flow-through fraction. 180 μl of the flow-through liquid was immediately transferred to scintillation counting vials filled with 1.5 ml OPTI-FLUOR for aqueous samples (Packard, Meriden, Conn.). The radioactivity count from the sample without BsoBI is F₀, and the radioactivity count from sample with BsoBI or each variant is F. The apparent Kd value is calculated from F/F₀ and the BsoBI concentration [E] according to equation [1]. F/F₀=a [Kd/([E]+Kd)]+b a and b are equation fitting parameters, where b is the non-specific flow-through, and a is the maximum change amplitude.
(§2) DNA binding properties of BsoBI endonuclease and variants: To obtain reproducible BsoBI:DNA binding data, a filter binding assay utilizing a microcentrifuge filter was developed. […]

BsoBI D246R [2] = biological target: T2, BsoBI D246R (UniProt P70985 P70985:1-323, D246R); assay: filter; 4 mM CaCl2; ±20; conditions: chain copies: 2 inferred; label: 33P 5' end
T2 sequence: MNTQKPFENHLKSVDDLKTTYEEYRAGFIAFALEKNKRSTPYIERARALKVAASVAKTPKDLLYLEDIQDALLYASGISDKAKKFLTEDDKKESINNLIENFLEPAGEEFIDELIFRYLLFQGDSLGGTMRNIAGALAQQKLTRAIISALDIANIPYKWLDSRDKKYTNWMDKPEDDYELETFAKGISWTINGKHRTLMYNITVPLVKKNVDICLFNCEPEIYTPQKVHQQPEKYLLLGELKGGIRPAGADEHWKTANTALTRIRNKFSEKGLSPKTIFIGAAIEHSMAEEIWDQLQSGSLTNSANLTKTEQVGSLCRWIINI
Procedure: as §1, §2

BsoBI D246E [3] = biological target: T3, BsoBI D246E (UniProt P70985 P70985:1-323, D246E); assay: filter; 4 mM CaCl2; ±20000; conditions: chain copies: 2 inferred; label: 33P 5' end
T3 sequence: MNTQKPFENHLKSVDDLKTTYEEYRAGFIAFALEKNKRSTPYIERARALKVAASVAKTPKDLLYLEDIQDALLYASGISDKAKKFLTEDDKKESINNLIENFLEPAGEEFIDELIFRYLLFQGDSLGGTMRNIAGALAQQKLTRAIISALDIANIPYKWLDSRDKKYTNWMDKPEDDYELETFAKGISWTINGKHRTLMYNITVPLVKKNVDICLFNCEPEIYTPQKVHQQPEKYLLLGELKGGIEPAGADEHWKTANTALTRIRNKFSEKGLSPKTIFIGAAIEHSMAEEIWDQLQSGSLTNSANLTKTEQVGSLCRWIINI
Procedure: as §1, §2

BsoBI D246A [4] = biological target: T4, BsoBI D246A (UniProt P70985 P70985:1-323, D246A); assay: filter; 4 mM CaCl2; ±40; conditions: chain copies: 2 inferred; label: 33P 5' end
T4 sequence: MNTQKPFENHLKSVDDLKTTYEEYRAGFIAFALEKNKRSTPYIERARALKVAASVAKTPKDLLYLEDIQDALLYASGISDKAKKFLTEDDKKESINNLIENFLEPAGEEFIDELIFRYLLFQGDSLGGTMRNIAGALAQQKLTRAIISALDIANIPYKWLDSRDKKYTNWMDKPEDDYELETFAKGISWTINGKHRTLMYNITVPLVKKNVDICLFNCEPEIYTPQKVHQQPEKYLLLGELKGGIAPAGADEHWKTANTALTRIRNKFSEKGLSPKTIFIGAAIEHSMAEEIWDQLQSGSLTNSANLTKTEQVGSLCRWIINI
Procedure: as §1, §2

BsoBI D246Y [5] = biological target: T5, BsoBI D246Y (UniProt P70985 P70985:1-323, D246Y); assay: filter; 4 mM CaCl2; ±16; conditions: chain copies: 2 inferred; label: 33P 5' end
T5 sequence: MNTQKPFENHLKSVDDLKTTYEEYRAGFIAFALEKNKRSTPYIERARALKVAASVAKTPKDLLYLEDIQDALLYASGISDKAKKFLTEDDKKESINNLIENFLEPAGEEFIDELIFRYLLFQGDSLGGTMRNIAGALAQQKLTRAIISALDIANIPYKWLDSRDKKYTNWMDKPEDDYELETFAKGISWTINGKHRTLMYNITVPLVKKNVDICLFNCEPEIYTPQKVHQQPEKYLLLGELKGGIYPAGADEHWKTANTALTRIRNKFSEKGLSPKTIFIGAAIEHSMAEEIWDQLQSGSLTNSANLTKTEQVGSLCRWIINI
Procedure: as §1, §2

BsoBI D246C [6] = biological target: T6, BsoBI D246C (UniProt P70985 P70985:1-323, D246C); assay: filter; 4 mM CaCl2; ±11; conditions: chain copies: 2 inferred; label: 33P 5' end
T6 sequence: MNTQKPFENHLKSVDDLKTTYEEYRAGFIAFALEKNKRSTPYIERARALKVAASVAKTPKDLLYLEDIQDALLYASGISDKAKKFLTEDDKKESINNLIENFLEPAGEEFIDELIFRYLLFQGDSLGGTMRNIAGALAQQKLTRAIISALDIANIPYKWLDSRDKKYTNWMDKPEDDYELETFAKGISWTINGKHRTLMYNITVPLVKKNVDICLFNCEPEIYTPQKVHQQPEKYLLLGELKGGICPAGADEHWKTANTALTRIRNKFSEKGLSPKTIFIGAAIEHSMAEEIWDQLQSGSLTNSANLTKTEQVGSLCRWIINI
Procedure: as §1, §2

BsoBI D246R [7] = biological target: T2, BsoBI D246R; assay: filter; 4 mM CaCl2; ±3.5; conditions: chain copies: 2 inferred; label: 33P 5' end
Procedure: as §1, §2

BsoBI D246E [8] = biological target: T3, BsoBI D246E; assay: filter; 4 mM CaCl2; ±683; conditions: chain copies: 2 inferred; label: 33P 5' end
Procedure: as §1, §2

BsoBI D246C [9] = biological target: T6, BsoBI D246C; assay: filter; 4 mM CaCl2; ±4; conditions: chain copies: 2 inferred; label: 33P 5' end
Procedure: as §1
(§3) DNA binding properties of BsoBI endonuclease and variants: To obtain reproducible BsoBI:DNA binding data, a filter binding assay utilizing a microcentrifuge filter was developed. In the control experiment, more than 99% of the wt BsoBI endonuclease was retained on the filter of the spin column. When labeled duplex DNA was loaded onto the membrane in the absence of protein, more than 95% of the DNA passed through the column. […] The heat-treatment step removed approximately 80% of E. coli proteins. The filter-binding assay was performed for wt BsoBI endonuclease and variants D246A, D246C, D246E, D246R, and D246Y in the presence of Ca⁺⁺. The inclusion of Ca⁺⁺ in the binding buffer stabilizes the protein:DNA complex in DNA mobility shift assays (data not shown) and it was presumed that Ca⁺⁺ does the same in the filter binding assay.

BsoBI D246A [10] = biological target: T4, BsoBI D246A; assay: filter; 4 mM CaCl2; ±0.6; conditions: chain copies: 2 inferred; label: 33P 5' end
Procedure: as §1, §2

[11] = biological target: T1, BsoBI restriction endonuclease; assay: filter; 4 mM CaCl2, 100 mM NaCl, pH 7.5, room temp; ±1.2; conditions: tags: untagged, expressed from pRRS-bsoBIR in E. coli ER2683; chain copies: 2 inferred; label: 33P 5' end
Procedure: as §1, §2

BsoBI D246Y [12] = biological target: T5, BsoBI D246Y; assay: filter; 4 mM CaCl2; ±2; conditions: chain copies: 2 inferred; label: 33P 5' end
Procedure: as §1, §2

BsoBI D246A [13] = biological target: T4, BsoBI D246A; assay: filter; 4 mM CaCl2; ±97; conditions: chain copies: 2 inferred; label: 33P 5' end
Procedure: as §1, §2

BsoBI D246Y [14] = biological target: T5, BsoBI D246Y; assay: filter; 4 mM CaCl2; ±67; conditions: chain copies: 2 inferred; label: 33P 5' end
Procedure: as §1, §2

BsoBI D246E [15] = biological target: T3, BsoBI D246E; assay: filter; 4 mM CaCl2; ±3347; conditions: chain copies: 2 inferred; label: 33P 5' end
Procedure: as §1, §2

BsoBI D246C [16] = biological target: T6, BsoBI D246C; assay: filter; 4 mM CaCl2; ±10; conditions: chain copies: 2 inferred; label: 33P 5' end
Procedure: as §1, §2

[17] = biological target: T1, BsoBI restriction endonuclease; assay: filter; 4 mM CaCl2, non-specific control; ±143; conditions: tags: untagged, expressed from pRRS-bsoBIR in E. coli ER2683; chain copies: 2 inferred; label: 33P 5' end
Procedure: as §1, §2

BsoBI D246R [18] = biological target: T2, BsoBI D246R; assay: filter; 4 mM CaCl2; ±4.9; increased non-specific binding; conditions: chain copies: 2 inferred; label: 33P 5' end
Procedure: as §1, §2

BsoBI D246C [19] = biological target: T6, BsoBI D246C; assay: filter; 4 mM CaCl2; ±9.8; conditions: chain copies: 2 inferred; label: 33P 5' end
Procedure: as §1, §2

BsoBI D246A [20] = biological target: T4, BsoBI D246A; assay: filter; 4 mM CaCl2; ±4; conditions: chain copies: 2 inferred; label: 33P 5' end
Procedure: as §1, §3

BsoBI D246Y [21] = biological target: T5, BsoBI D246Y; assay: filter; 4 mM CaCl2; ±4; conditions: chain copies: 2 inferred; label: 33P 5' end
Procedure: as §1, §3

[22] = biological target: T1, BsoBI restriction endonuclease; assay: filter; 4 mM CaCl2, 100 mM NaCl, pH 7.5, room temp; ±0.9; conditions: tags: untagged, expressed from pRRS-bsoBIR in E. coli ER2683; chain copies: 2 inferred; label: 33P 5' end
Procedure: as §1, §2

BsoBI D246E [23] = biological target: T3, BsoBI D246E; assay: filter; 4 mM CaCl2; ±1578; conditions: chain copies: 2 inferred; label: 33P 5' end
Procedure: as §1, §2

BsoBI D246R [24] = biological target: T2, BsoBI D246R; assay: filter; 4 mM CaCl2; ±4.6; conditions: chain copies: 2 inferred; label: 33P 5' end
Procedure: as §1, §2

B1: S1 (CTCGAG) (dsDNA)
DNA 1: GAGTGTTATGGGTAGCTCGAGTGAAGTGGGAATATC
DNA 2: GATATTCCCACTTCACTCGAGCTACCCATAACACTC
B1 gave a Kd [1] of 0.0092 nM, a Kd (BsoBI D246R [2]) of 0.089 nM and a Kd (BsoBI D246E [3]) of 80 nM. For the same binder, the Kd (BsoBI D246A [4]) was 0.219 nM, the Kd (BsoBI D246Y [5]) was 0.132 nM and the Kd (BsoBI D246C [6]) was 0.074 nM.

B2: S2 (CCCGGG) (dsDNA)
DNA 1: GAGTGTTATGGGTAGCCCGGGTGAAGTGGGAATATC
DNA 2: GATATTCCCACTTCACCCGGGCTACCCATAACACTC
Work on B2 yielded a Kd (BsoBI D246R [7]) of 0.038 nM, a Kd (BsoBI D246E [8]) of 2.84 nM and a Kd (BsoBI D246C [9]) of 0.03 nM. It also gave a Kd (BsoBI D246A [10]) of 0.0031 nM, a Kd [11] of 0.0066 nM and a Kd (BsoBI D246Y [12]) of 0.041 nM.

B3: N (CATAAC, non-specific) (dsDNA)
DNA 1: GAGTGTTATGGGTAGCATAACTGAAGTGGGAATATC
DNA 2: GATATTCCCACTTCAGTTATGCTACCCATAACACTC
B3 was tested, and the Kd (BsoBI D246A [13]) was 0.578 nM, the Kd (BsoBI D246Y [14]) was 0.449 nM and the Kd (BsoBI D246E [15]) was 93.2 nM. It also gave a Kd (BsoBI D246C [16]) of 0.142 nM, a Kd [17] of 1.45 nM and a Kd (BsoBI D246R [18]) of 0.064 nM.

B4: S3 (CTCGGG/CCCGAG) (dsDNA)
DNA 1: GAGTGTTATGGGTAGCTCGGGTGAAGTGGGAATATC
DNA 2: GATATTCCCACTTCACCCGAGCTACCCATAACACTC
For B4, the Kd (BsoBI D246C [19]) was 0.064 nM, the Kd (BsoBI D246A [20]) was 0.017 nM and the Kd (BsoBI D246Y [21]) was 0.057 nM. For the same binder, the Kd [22] was 0.0053 nM, the Kd (BsoBI D246E [23]) was 42.1 nM and the Kd (BsoBI D246R [24]) was 0.039 nM.
